# In article PMC12289001, “Functional characterization of DPP4 and FcRn as receptor and coreceptor for classical human astroviruses in Caco-2 cells” (PLOS Pathogens, 2025):
# Molecular target: T1, recombinant FcRn (FCGRT ectodomain with β-2-Microglobulin), expressed in CHO-S cells (human, UniProt P55899 24-297; P61769 21-119)
# T1 construct: signal peptide in the construct; ectodomain of human FCGRT (FcRn heavy chain), Met1-Ser297, followed by a C-terminal thrombin cleavage site before the tags; β-2-Microglobulin, Met1-Met119; also called neonatal Fc receptor; source: CHO-S cells, electroporated with both plasmids, purified from the media (StrepTrap XT)
# T1 sequence (P55899 24-297, chain 1 of 2): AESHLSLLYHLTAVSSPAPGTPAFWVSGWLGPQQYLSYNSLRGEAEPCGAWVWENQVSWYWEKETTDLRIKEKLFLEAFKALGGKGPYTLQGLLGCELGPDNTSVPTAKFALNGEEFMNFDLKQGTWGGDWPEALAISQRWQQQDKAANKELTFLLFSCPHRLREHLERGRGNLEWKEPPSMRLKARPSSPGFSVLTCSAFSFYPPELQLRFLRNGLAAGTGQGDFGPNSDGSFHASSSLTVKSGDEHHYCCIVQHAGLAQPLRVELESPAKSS
# T1 sequence (P61769 21-119, chain 2 of 2): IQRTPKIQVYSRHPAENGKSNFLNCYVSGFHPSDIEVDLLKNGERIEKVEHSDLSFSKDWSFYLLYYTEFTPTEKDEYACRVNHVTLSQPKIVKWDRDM
# Assay: BLI; HIS1K biosensors loaded with HAstV-8 spike (6 μg/ml); FcRn in solution, 1,000 to 62.5 nM (mutant spike: 2,000 nM only); 0.1M sodium phosphate, 150 mM NaCl, 0.05% Tween-20, pH 7.0; 25 °C; 1:1 binding model; triplicate
# Settings: both partners purified
binder,measurement,value
"recombinant WT HAstV-8 capsid spike (domain or fragment, Wild-type spike. Limits are not printed: about 429-647 is taken by convention from related HAstV spike constructs and is close to the VP25 feature 424-648. The C-terminal thrombin site and His10 tag …) GEQFRVLLTVGPPMAPNTANSQNWVNKTIVPPENQYTVKIGIDLEHYTTMQGFTPVESVSWYTADFQPSDEPSPIPGLYARVNNTKKADVYGVQQFKSSHTNNRHQITSVFLVRVTTSFQVINYTSYFIRGAESGSNVSNLKIRDQTYHTPLQFTQGKWYLLTSTVMHDGPTSSGWVWMNQELTNNIAYRVDPGMMYLITPPPAASQLYFELHTVLPQA",Kd,~280 nM
